Legend:
[1] = biological target: T1, SCL30 (UniProt Q8L3X8 1-262); test: EMSA; 2 ug tRNA, 10 nM labeled RNA; 20 ul, 2 ug tRNA, 10 nM biotin-RNA, LightShift Chemiluminescent RNA EMSA kit buffer (salt and pH not stated), 30 min room temperature; 6% native PAGE in 0.5x TBE; settings: protein: recombinant; tags: His; label: 5' biotin
T1 sequence: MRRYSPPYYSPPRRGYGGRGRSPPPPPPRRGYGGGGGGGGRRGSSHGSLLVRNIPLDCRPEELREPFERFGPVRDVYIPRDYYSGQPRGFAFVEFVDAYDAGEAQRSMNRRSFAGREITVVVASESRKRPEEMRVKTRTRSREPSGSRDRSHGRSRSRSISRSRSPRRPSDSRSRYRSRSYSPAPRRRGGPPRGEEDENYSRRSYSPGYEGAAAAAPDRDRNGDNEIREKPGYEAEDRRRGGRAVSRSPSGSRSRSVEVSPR

[2] = biological target: T1, SCL30; test: competition; mutated probe failed to compete with N1; 20 ul, 2 ug tRNA, 10 nM biotin-RNA, LightShift Chemiluminescent RNA EMSA kit buffer (salt and pH not stated), 30 min room temperature; 6% native PAGE in 0.5x TBE; settings: protein: recombinant; tags: His
[3] = biological target: T1, SCL30; test: competition; 0.625-5 uM unlabeled RNA vs 10 nM N1, 0.4 ug SCL30; labeled binding abolished at 5 uM; 20 ul, 2 ug tRNA, 10 nM biotin-RNA, LightShift Chemiluminescent RNA EMSA kit buffer (salt and pH not stated), 30 min room temperature; 6% native PAGE in 0.5x TBE; settings: protein: recombinant; tags: His; label: none

AGAUUAAAGAAGAGGAAAGGAGAAGG (ssRNA) [AT1G53250 AGAAGA RNA probe]: binds [1].

AGAUUAAUCUUCUGGAAAGGAGAAGG (ssRNA) [AT1G53250 mutated RNA probe (AGAAGA to UCUUCU)]: no binding [2].

AGAUUAAAGAAGAGGAAAGGAGAAGG (ssRNA) [AT1G53250 RNA, unlabeled competitor]: binds [3].

Source: PMC5362245, “Depletion of Arabidopsis SC35 and SC35-like serine/arginine-rich proteins affects the transcription and splicing of a subset of genes”
